We go through one molecule from PMC4226670, “TAp73 promotes cell survival upon genotoxic stress by inhibiting p53 activity”.

The term Kd denotes the constant that tells how readily two partners part at equilibrium.

The target of the data set is T1, GST-TAp73α (UniProt O15350 1-636).
T1 sequence: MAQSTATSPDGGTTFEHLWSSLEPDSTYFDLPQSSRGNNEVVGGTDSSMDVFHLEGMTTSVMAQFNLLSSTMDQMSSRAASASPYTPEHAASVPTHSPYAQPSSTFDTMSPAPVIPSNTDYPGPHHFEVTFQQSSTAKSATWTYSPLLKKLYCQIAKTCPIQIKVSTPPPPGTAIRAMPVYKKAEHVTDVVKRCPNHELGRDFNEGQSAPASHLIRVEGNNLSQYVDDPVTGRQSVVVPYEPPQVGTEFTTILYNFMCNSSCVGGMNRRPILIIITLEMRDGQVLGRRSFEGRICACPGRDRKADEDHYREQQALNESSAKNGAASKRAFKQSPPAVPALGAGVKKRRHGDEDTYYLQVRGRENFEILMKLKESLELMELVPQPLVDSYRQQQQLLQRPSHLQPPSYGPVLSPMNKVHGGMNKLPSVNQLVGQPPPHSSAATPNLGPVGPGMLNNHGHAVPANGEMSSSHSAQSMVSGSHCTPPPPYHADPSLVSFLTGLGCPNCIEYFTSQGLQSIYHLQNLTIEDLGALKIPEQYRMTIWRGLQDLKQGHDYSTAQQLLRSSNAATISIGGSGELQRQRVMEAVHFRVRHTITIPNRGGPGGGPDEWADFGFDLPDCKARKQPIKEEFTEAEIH
The experiment in a line: fluorescence polarization; FP: 4 nM FAM duplex, 100 mM NaCl, 10 mM Tris-HCl pH 7.5, 10% glycerol, 5 mM DTT, 0.2 mg/mL BSA, room temperature; pull-down: 2 ug duplex with lysate, 90 min room temperature, then streptavidin beads 2 h 4 C. The settings on record: protein: commercial; tags: GST; chain copies: 4; label: 5' 6-FAM on strand 1; blunt.

B1: PUMA promoter duplex, FAM (dsDNA)
DNA 1: CGCGCCTGCAAGTCCTGACTTGTCCGCGGC
DNA 2: GCCGCGGACAAGTCAGGACTTGCAGGCGCG
B1 registered a Kd of 87.1 nM. This lies in the double-digit nanomolar range.
